What all share (test): BLI (Octet), antibody on AHC sensor
A general note: Biolayer interferometry detects binding as a change in optical thickness at a sensor tip.

In test [1] the target is T1, recombinant human ASM protein (human, UniProt P17405 47-630).
T1 construct: Recombinant human ASM in solution; also called acid sphingomyelinase (ASM) protein
T1 sequence: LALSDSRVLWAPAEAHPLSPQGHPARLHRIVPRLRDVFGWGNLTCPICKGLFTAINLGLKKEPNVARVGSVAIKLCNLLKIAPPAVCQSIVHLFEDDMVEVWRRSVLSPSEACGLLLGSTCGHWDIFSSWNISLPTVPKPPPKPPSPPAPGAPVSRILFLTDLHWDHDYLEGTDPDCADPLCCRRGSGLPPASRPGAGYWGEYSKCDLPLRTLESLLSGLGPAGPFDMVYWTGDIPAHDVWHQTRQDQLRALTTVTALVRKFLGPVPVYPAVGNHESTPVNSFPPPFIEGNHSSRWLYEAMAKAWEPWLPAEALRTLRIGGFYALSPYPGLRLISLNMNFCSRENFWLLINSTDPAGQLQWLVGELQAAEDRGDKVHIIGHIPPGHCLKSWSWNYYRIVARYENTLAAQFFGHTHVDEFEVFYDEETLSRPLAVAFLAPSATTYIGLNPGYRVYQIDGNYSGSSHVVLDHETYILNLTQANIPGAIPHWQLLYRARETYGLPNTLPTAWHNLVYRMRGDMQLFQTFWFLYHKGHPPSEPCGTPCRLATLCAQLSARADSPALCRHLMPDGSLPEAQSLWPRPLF
As for the experimental part: (§1) The binding affinity, to the ASM protein, of the produced antibodies specifically binding to the ASM protein and the interactive dynamics therebetween were measured using an Octet® QK384 system (Pall Life Sciences).
(§2) First, an antibody specifically binding to the ASM protein produced in Example 1 was captured using an anti-human IgG Fc capture (AHC) biosensor, and 1.25, 2.5, 5, 10, or 20 nM recombinant human ASM protein solution was added thereto. […] The association constant (Kₐ), dissociation constant (Kd), and equilibrium dissociation constant (KD) for each antibody were determined using Octet® analysis software (Pall Life® Sciences). As a result, the binding affinities, to the human ASM protein, of the antibodies with mutations in the heavy chain CDR regions of the antibody #9104 as depicted in Table 1 are shown in Table 5, and the binding affinities, to the human ASM protein, of the antibodies with mutations of the light chain CDR regions in the antibody #9104 as depicted in Table 2 are shown in Table 6.
After the small-scale expression in the ExpiCHO cell line as described above, the binding affinity to the human ASM protein was investigated as described in Experimental Example 1. Specifically, the antibody produced by a combination of #9104v-H33 heavy chain variable region and #9104v-L23 light chain variable region was not expressed and thus excluded in the analysis of binding affinity to ASM protein.

Test [2] addresses T1, recombinant human ASM protein. The source holds these as a separate data set.
The target is the same in test [3]. The method, then: as §1, §2
This is another data set of the same source.

Read-outs that look alike come from different tables or passages of the source.

One may read the Kd as the equilibrium constant for the complex coming apart. A word on the koff: it is the rate constant with which the complex falls apart. Broadly, the kon is the rate constant with which the complex forms.

B1: #9104 (antibody, V domains shown)
VH: EVQLLESGGGLVQPGGSLRLSCAASGFTFSNYYMSWVRQAPGKGLEWVSGIYYGSGNIYYADSVKGRFTISRDNSKNTLYLQMNSLRAEDTAVYYCARDTPGFDYWGQGTLVTVSS
VL: QSVLTQPPSASGTPGQRVTISCTGSSSNIGNNAVNWYQQLPGTAPKLLIYYDSHRPSGVPDRFSGSKSGTSASLAISGLRSEDEADYYCGAWDYSLSAYVFGGGTKLTVLG
notes: Parental antibody; also called antibody #9104
Regarding B1, in test [1], the Kd turned out to be 2.19 nM, the koff came to 0.000855 s⁻¹ and the on-rate constant (kon) was 391000 M⁻¹ s⁻¹. In test [2], the Kd was 2.25 nM, the koff turned out to be 0.000873 s⁻¹ and the on-rate (kon) was determined as 389000 M⁻¹ s⁻¹. In addition, in test [3], the Kd worked out at 2.25 nM, the off-rate constant (koff) came out at 0.000873 s⁻¹ and the kon came out at 389000 M⁻¹ s⁻¹.

The values above are taken from patent US20260201064A1 (ISU ABXIS, published 2026).
